T1: GRIP1_4, Q9Y3R0
T1 sequence (Q9Y3R0 467-571, limits assumed, looked up): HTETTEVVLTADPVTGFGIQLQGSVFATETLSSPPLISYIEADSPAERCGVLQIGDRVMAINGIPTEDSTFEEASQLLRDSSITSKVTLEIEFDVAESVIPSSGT

T2: DVL3, Q92997
T2 sequence (Q92997 244-331, limits assumed, looked up): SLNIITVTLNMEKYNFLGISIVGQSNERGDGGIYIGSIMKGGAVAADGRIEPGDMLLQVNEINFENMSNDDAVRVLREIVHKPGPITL

T3: LIN7B, Q9HAP6
T3 sequence (Q9HAP6 88-185, limits assumed, looked up): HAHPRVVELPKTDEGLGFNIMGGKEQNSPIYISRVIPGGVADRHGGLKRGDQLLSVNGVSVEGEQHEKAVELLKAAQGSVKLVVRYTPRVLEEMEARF

T4: PDZD2_2, O15018
T4 sequence (O15018 329-429, limits assumed, looked up): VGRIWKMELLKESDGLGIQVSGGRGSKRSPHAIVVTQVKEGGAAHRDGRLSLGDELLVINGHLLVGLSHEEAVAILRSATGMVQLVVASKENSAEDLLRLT

T5: FRMPD1, Q5SYB0
T5 sequence (Q5SYB0 52-145, limits assumed, looked up): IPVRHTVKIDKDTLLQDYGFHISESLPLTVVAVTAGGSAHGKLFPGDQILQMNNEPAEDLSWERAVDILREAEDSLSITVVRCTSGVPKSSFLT

T6: PDZD7_3, Q9H5P4
T6 sequence (Q9H5P4 857-944, limits assumed, looked up): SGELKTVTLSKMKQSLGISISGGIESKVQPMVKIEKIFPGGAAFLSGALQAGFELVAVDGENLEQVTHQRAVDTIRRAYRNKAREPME

T7: MPP2, Q14168
T7 sequence (Q14168 180-250, limits assumed, looked up): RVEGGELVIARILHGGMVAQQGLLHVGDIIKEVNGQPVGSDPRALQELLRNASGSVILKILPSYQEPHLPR

T8: APBA3_1, O96018
T8 sequence (O96018 389-490, limits assumed, looked up): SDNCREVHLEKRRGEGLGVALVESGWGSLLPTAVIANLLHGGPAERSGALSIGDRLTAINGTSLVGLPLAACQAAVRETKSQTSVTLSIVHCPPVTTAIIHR

T9: HTRA4, P83105
T9 sequence (P83105 378-476, limits assumed, looked up): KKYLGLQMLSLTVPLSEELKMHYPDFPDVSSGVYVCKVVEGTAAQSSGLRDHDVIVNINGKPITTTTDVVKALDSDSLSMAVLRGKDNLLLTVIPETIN

T10: LNX2_3, Q8N448
T10 sequence (Q8N448 463-564, limits assumed, looked up): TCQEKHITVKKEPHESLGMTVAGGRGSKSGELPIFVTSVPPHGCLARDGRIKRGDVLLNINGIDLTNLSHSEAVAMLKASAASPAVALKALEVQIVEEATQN

T11: LIN7C, Q9NUP9
T11 sequence (Q9NUP9 88-185, limits assumed, looked up): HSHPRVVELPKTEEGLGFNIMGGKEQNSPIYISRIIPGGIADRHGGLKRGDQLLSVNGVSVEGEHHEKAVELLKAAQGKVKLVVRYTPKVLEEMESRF


Assays:
Assay in all cases: holdup assay
Parameters in all cases: key: below the threshold = too weak to quantify, mostly under pKd 3.1 to 4
Details in all cases: plain residues with an end cap or a label only (N-terminal biotin on a linker: ado-ado)
[1] = biological target: T1, GRIP1_4, Q9Y3R0
[2] = biological target: Inadl_3, Q8NI35
Sequence of Inadl_3, Q8NI35 (Q8NI35 359-469): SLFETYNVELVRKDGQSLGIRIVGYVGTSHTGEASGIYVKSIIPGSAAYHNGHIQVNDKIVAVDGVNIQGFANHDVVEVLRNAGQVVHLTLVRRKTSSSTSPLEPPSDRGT

[3] = biological target: T2, DVL3, Q92997
[4] = biological target: T3, LIN7B, Q9HAP6
[5] = biological target: FRMPD2_1, Q68DX3
Sequence of FRMPD2_1, Q68DX3 (Q68DX3 770-861): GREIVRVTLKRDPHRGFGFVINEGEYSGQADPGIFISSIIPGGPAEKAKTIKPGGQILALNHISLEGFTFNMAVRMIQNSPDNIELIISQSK

[6] = biological target: DLG4_1, P78352
Sequence of DLG4_1, P78352 (P78352 62-152): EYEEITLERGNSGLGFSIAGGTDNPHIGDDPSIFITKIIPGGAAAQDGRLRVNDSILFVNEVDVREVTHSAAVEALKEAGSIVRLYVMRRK

[7] = biological target: T4, PDZD2_2, O15018
[8] = biological target: T5, FRMPD1, Q5SYB0
[9] = biological target: T6, PDZD7_3, Q9H5P4
[10] = biological target: GRID2IP_1, A4D2P6
Sequence of GRID2IP_1, A4D2P6 (A4D2P6 1-87): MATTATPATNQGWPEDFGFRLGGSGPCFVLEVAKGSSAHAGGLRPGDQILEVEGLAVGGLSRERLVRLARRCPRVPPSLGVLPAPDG

[11] = biological target: Inadl_6, Q8NI35
Sequence of Inadl_6, Q8NI35 (Q8NI35 1058-1167): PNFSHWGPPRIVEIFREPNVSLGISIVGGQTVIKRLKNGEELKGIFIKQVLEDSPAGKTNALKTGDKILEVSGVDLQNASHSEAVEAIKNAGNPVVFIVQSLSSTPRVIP

[12] = biological target: Inadl_8, Q8NI35
Sequence of Inadl_8, Q8NI35 (Q8NI35 1425-1530): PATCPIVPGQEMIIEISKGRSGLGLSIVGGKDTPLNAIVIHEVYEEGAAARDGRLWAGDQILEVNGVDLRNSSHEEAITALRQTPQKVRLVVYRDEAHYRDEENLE

[13] = biological target: T7, MPP2, Q14168
[14] = biological target: MAST2, Q6P0Q8
Sequence of MAST2, Q6P0Q8 (Q6P0Q8 1099-1202): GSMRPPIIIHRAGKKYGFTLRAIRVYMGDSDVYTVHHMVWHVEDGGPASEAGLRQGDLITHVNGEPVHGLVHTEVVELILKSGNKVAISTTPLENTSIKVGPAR

[15] = biological target: T8, APBA3_1, O96018
[16] = biological target: T9, HTRA4, P83105
[17] = biological target: T10, LNX2_3, Q8N448
[18] = biological target: LNX1_3, Q8TBB1
Sequence of LNX1_3, Q8TBB1 (Q8TBB1 500-596): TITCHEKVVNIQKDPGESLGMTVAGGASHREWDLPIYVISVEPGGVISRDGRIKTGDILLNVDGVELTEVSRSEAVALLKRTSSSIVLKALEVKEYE

[19] = biological target: T11, LIN7C, Q9NUP9
[20] = biological target: Inadl_1, Q8NI35
Sequence of Inadl_1, Q8NI35 (Q8NI35 113-229): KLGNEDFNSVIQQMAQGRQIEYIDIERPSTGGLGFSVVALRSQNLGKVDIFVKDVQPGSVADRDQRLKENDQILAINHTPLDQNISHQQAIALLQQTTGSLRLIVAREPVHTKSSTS

[21] = biological target: MAGI2_5, Q86UL8
Sequence of MAGI2_5, Q86UL8 (Q86UL8 915-1017): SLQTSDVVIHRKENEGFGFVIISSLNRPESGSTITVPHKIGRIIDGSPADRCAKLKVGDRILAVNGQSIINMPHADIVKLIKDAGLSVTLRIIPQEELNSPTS

[22] = biological target: IL16_4, Q14005
Sequence of IL16_4, Q14005 (Q14005 1229-1329): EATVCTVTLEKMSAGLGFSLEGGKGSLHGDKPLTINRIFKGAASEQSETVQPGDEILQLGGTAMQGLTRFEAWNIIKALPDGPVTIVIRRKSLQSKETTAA

[23] = biological target: ARHGEF12, Q9NZN5-2
Sequence of ARHGEF12, Q9NZN5-2 (Q9NZN5 other isoform, or with tags, fused parts or gaps): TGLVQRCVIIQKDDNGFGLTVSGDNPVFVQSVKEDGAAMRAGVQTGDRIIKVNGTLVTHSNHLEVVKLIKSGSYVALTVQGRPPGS

[24] = biological target: NHERF4_4, Q86UT5
Sequence of NHERF4_4, Q86UT5 (Q86UT5 464-550): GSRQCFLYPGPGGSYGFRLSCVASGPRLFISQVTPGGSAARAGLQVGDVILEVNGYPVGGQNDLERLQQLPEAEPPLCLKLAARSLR

[25] = biological target: Inadl_9, Q8NI35
Sequence of Inadl_9, Q8NI35 (Q8NI35 1530-1615): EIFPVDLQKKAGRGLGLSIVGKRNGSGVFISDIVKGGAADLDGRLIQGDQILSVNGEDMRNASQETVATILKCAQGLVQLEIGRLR

[26] = biological target: NHERF4_1, Q86UT5-2
Sequence of NHERF4_1, Q86UT5-2 (Q86UT5 other isoform, or with tags, fused parts or gaps): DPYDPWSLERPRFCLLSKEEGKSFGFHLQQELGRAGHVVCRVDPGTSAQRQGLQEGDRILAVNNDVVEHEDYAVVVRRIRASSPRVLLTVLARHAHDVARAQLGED

Binder | pKd [1] | pKd [2] | pKd [3] | pKd [4] | pKd [5] | pKd [6] | pKd [7] | pKd [8] | pKd [9] | pKd [10] | pKd [11] | pKd [12] | pKd [13] | pKd [14] | pKd [15] | pKd [16] | pKd [17] | pKd [18] | pKd [19] | pKd [20] | other results
SKENVQETQI [LRRC4B, Q9NT99] | below the threshold | below the threshold | below the threshold | 4.13 | below the threshold | 4.02 | 3.97 | below the threshold | 5.39 | below the threshold | 3.71 | below the threshold | below the threshold | 5.56 | below the threshold | below the threshold | below the threshold | below the threshold | 3.88 | below the threshold | pKd [21]: 4.13; pKd [22]: below the threshold; pKd [23]: 4.4; pKd [24]: below the threshold; pKd [25]: below the threshold; pKd [26]: below the threshold
EVNETDDTKM [KCNJ1, P48048] | below the threshold | below the threshold | below the threshold | below the threshold | below the threshold | below the threshold | 3.5 | below the threshold | 4.38 | below the threshold | 3.54 | below the threshold | below the threshold | 4.83 | below the threshold | 4.14 | below the threshold | below the threshold | below the threshold | 3.48 | pKd [21]: 4.04; pKd [22]: 3.64; pKd [23]: 3.75; pKd [24]: below the threshold; pKd [25]: below the threshold; pKd [26]: below the threshold
VNKSKLLTDV [KCNA1, Q09470] | below the threshold | below the threshold | below the threshold | 3.78 | below the threshold | 4.08 | 4.07 | below the threshold | 4.36 | below the threshold | below the threshold | 3.91 | below the threshold | 5.07 | below the threshold | below the threshold | below the threshold | below the threshold | below the threshold | below the threshold | pKd [21]: below the threshold; pKd [22]: below the threshold; pKd [23]: 4.56; pKd [24]: below the threshold; pKd [25]: below the threshold; pKd [26]: below the threshold
TPPAAKKSRI [BAZ1A, Q9NRL2] | below the threshold | below the threshold | below the threshold | 3.62 | below the threshold | below the threshold | 3.97 | below the threshold | 4.52 | below the threshold | below the threshold | 4.35 | below the threshold | below the threshold | below the threshold | below the threshold | below the threshold | below the threshold | below the threshold | below the threshold | pKd [21]: below the threshold; pKd [22]: 3.69; pKd [23]: 3.66; pKd [24]: below the threshold; pKd [25]: below the threshold; pKd [26]: below the threshold
LSEFKAMDSI [CTNNA1, P35221] | below the threshold | below the threshold | below the threshold | 3.74 | below the threshold | below the threshold | below the threshold | below the threshold | below the threshold | below the threshold | below the threshold | below the threshold | below the threshold | below the threshold | below the threshold | 3.85 | below the threshold | below the threshold | below the threshold | below the threshold | pKd [21]: below the threshold; pKd [22]: below the threshold; pKd [23]: below the threshold; pKd [24]: below the threshold; pKd [25]: below the threshold; pKd [26]: below the threshold
VDSTVKVWTC [TRAF7, Q6Q0C0] | below the threshold | 4.4 | 3.85 | 3.64 | 4.45 | below the threshold | 4.27 | below the threshold | below the threshold | below the threshold | below the threshold | below the threshold | below the threshold | 3.74 | below the threshold | 4.14 | below the threshold | 3.8 | below the threshold | 3.67 | pKd [21]: below the threshold; pKd [22]: below the threshold; pKd [23]: 3.5; pKd [24]: 3.62; pKd [25]: 3.68; pKd [26]: 3.67

Source: PMC9482650, “Quantitative fragmentomics allow affinity mapping of interactomes” (Nature Communications, 2022)
